Patent US20020142982A1, “Method for regulating angiogenesis” (priority 1999, published 2002)

Target: HA-tagged wild-type Akt (UniProt P31749)
Test: cell-based or functional assay

restoration of S1P-induced HUVEC chemotaxis by increasing wild-type Akt virus: 65%
Substance: T236A EDG-1 mutant receptor (from UniProt P21453 1-382)
